# Experimental data: doi:10.1101/2021.06.09.447696, “A dual allosteric pathway drives human mitochondrial Lon” (bioRxiv, 2021)
# T1: human mitochondrial Lon, full-length mature form (68-959), wild type (human, UniProt P36776 68-959)
# T1 construct: human mitochondrial LonP1, mature protein, residues 68-959 of UniProt P36776; Homohexamer in the cryo-EM structure; vector pNIC28-Bsa4; also called LonP1; wt-Lon; not shown: His6, N-terminal, cleaved
# T1 sequence (looked up): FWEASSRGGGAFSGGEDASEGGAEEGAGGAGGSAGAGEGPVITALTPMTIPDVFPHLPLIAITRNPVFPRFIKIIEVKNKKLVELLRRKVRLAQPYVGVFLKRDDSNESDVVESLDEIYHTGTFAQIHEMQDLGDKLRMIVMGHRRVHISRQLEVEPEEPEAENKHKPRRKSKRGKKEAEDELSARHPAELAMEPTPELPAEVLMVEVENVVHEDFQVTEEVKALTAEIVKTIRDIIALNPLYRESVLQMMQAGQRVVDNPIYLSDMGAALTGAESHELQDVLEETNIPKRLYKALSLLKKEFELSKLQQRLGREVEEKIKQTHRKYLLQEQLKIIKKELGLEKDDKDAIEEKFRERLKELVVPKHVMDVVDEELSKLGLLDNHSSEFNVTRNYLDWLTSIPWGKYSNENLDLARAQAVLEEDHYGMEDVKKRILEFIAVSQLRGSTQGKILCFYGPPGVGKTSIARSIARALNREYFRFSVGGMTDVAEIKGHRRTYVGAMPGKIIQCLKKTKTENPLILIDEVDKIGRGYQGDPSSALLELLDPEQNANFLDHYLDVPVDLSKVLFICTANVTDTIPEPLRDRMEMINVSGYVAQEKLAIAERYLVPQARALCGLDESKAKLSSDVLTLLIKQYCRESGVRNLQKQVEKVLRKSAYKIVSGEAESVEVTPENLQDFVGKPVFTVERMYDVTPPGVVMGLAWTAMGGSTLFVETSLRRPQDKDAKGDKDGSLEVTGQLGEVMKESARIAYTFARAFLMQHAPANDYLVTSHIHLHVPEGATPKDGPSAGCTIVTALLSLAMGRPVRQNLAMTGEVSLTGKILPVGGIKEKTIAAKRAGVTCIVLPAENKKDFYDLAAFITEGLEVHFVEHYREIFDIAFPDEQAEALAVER
# B1: human mitochondrial Lon (68-959) K898A (enzyme, UniProt P36776 68-959, looked up)
# chain: FWEASSRGGGAFSGGEDASEGGAEEGAGGAGGSAGAGEGPVITALTPMTIPDVFPHLPLIAITRNPVFPRFIKIIEVKNKKLVELLRRKVRLAQPYVGVFLKRDDSNESDVVESLDEIYHTGTFAQIHEMQDLGDKLRMIVMGHRRVHISRQLEVEPEEPEAENKHKPRRKSKRGKKEAEDELSARHPAELAMEPTPELPAEVLMVEVENVVHEDFQVTEEVKALTAEIVKTIRDIIALNPLYRESVLQMMQAGQRVVDNPIYLSDMGAALTGAESHELQDVLEETNIPKRLYKALSLLKKEFELSKLQQRLGREVEEKIKQTHRKYLLQEQLKIIKKELGLEKDDKDAIEEKFRERLKELVVPKHVMDVVDEELSKLGLLDNHSSEFNVTRNYLDWLTSIPWGKYSNENLDLARAQAVLEEDHYGMEDVKKRILEFIAVSQLRGSTQGKILCFYGPPGVGKTSIARSIARALNREYFRFSVGGMTDVAEIKGHRRTYVGAMPGKIIQCLKKTKTENPLILIDEVDKIGRGYQGDPSSALLELLDPEQNANFLDHYLDVPVDLSKVLFICTANVTDTIPEPLRDRMEMINVSGYVAQEKLAIAERYLVPQARALCGLDESKAKLSSDVLTLLIKQYCRESGVRNLQKQVEKVLRKSAYKIVSGEAESVEVTPENLQDFVGKPVFTVERMYDVTPPGVVMGLAWTAMGGSTLFVETSLRRPQDKDAKGDKDGSLEVTGQLGEVMKESARIAYTFARAFLMQHAPANDYLVTSHIHLHVPEGATPKDGPSAGCTIVTALLSLAMGRPVRQNLAMTGEVSLTGKILPVGGIKEATIAAKRAGVTCIVLPAENKKDFYDLAAFITEGLEVHFVEHYREIFDIAFPDEQAEALAVER
# notes: human mitochondrial LonP1, mature protein, residues 68-959 of UniProt P36776, with K898A; The substrate is trapped as a covalent ester intermediate on S855; also called Lon^K898A; substrate-trapped Lon; not shown: His6, N-terminal, cleaved
# Tests used:
# [1] = target: T1, human mitochondrial Lon, full-length …; assay: cryo-EM structure; 0.5-0.7 mg/ml Lon construct in 20 mM HEPES pH 7.5, 100 mM NaCl, 10 mM MgCl2, 3% glycerol, 2 mM ATP added to 0.2 mg/ml TFAM, 30 s at room temperature, then vitrified; single-particle reconstruction; details: both partners purified
# [2] = target: B1; assay: as above; details: both partners purified
# [3] = target: the molecule itself; assay: as above
# [4] = target: the molecule itself; assay: SEC; Superose 6 Increase 3.2/300; 25 mM Tris-HCl pH 8.0, 10% glycerol, 1 mM DTT, 50 mM NaCl, 2 mM ATP; protein incubated at 37°C for 10 min with 2 mM ATP and 10 mM MgCl2; fractions analysed by SDS-PAGE
binder,measurement,setting,value
"mitochondrial transcription factor A, mature (amino acids 43-246) (natural protein, UniProt Q00059 43-246, looked up, mitochondrial transcription factor A (TFAM), mature, amino acids 43-246; also called TFAM; substrate; not shown: His6, N-terminal, cleaved) SSVLASCPKKPVSSYLRFSKEQLPIFKAQNPDAKTTELIRRIAQRWRELPDSKKKIYQDAYRAEWQVYKEEISRFKEQLTPSQIMSLEKEIMDKHLKRKAMTKKKELTLLGKPKRPRSAYNVYVAERFQEAKGDSPQEKLKTVKENWKNLSDSEKELYIQHAKEDETRYHNEMKSWEEQMIEVGRKDLLRRTIKKQRKYGAEEC",binding result,[1],binds
same,binding result,[2],binds
"human mitochondrial Lon (68-959) G106P, R563W, K594M (enzyme, UniProt P36776 68-959, looked up, human mitochondrial LonP1, mature protein, residues 68-959 of UniProt P36776, with the mutations G106P, R563W and K594M that arose spontaneously on cloning; also called Lon^Apo; substrate-free form of Lon; not shown: His6, N-terminal, cleaved) FWEASSRGGGAFSGGEDASEGGAEEGAGGAGGSAGAGEPPVITALTPMTIPDVFPHLPLIAITRNPVFPRFIKIIEVKNKKLVELLRRKVRLAQPYVGVFLKRDDSNESDVVESLDEIYHTGTFAQIHEMQDLGDKLRMIVMGHRRVHISRQLEVEPEEPEAENKHKPRRKSKRGKKEAEDELSARHPAELAMEPTPELPAEVLMVEVENVVHEDFQVTEEVKALTAEIVKTIRDIIALNPLYRESVLQMMQAGQRVVDNPIYLSDMGAALTGAESHELQDVLEETNIPKRLYKALSLLKKEFELSKLQQRLGREVEEKIKQTHRKYLLQEQLKIIKKELGLEKDDKDAIEEKFRERLKELVVPKHVMDVVDEELSKLGLLDNHSSEFNVTRNYLDWLTSIPWGKYSNENLDLARAQAVLEEDHYGMEDVKKRILEFIAVSQLRGSTQGKILCFYGPPGVGKTSIARSIARALNREYFRFSVGGMTDVAEIKGHRWTYVGAMPGKIIQCLKKTKTENPLILIDEVDMIGRGYQGDPSSALLELLDPEQNANFLDHYLDVPVDLSKVLFICTANVTDTIPEPLRDRMEMINVSGYVAQEKLAIAERYLVPQARALCGLDESKAKLSSDVLTLLIKQYCRESGVRNLQKQVEKVLRKSAYKIVSGEAESVEVTPENLQDFVGKPVFTVERMYDVTPPGVVMGLAWTAMGGSTLFVETSLRRPQDKDAKGDKDGSLEVTGQLGEVMKESARIAYTFARAFLMQHAPANDYLVTSHIHLHVPEGATPKDGPSAGCTIVTALLSLAMGRPVRQNLAMTGEVSLTGKILPVGGIKEKTIAAKRAGVTCIVLPAENKKDFYDLAAFITEGLEVHFVEHYREIFDIAFPDEQAEALAVER",binding result,[3],binds
B1,stoichiometry N,[3],6
"human mitochondrial Lon (68-959) L396A (enzyme, UniProt P36776 68-959, looked up, human mitochondrial LonP1, mature protein, residues 68-959 of UniProt P36776, with L396A; also called L396A Lon mutant; Lon L396A; not shown: His6, N-terminal, cleaved) FWEASSRGGGAFSGGEDASEGGAEEGAGGAGGSAGAGEGPVITALTPMTIPDVFPHLPLIAITRNPVFPRFIKIIEVKNKKLVELLRRKVRLAQPYVGVFLKRDDSNESDVVESLDEIYHTGTFAQIHEMQDLGDKLRMIVMGHRRVHISRQLEVEPEEPEAENKHKPRRKSKRGKKEAEDELSARHPAELAMEPTPELPAEVLMVEVENVVHEDFQVTEEVKALTAEIVKTIRDIIALNPLYRESVLQMMQAGQRVVDNPIYLSDMGAALTGAESHELQDVLEETNIPKRLYKALSLLKKEFELSKLQQRLGREVEEKIKQTHRKYLAQEQLKIIKKELGLEKDDKDAIEEKFRERLKELVVPKHVMDVVDEELSKLGLLDNHSSEFNVTRNYLDWLTSIPWGKYSNENLDLARAQAVLEEDHYGMEDVKKRILEFIAVSQLRGSTQGKILCFYGPPGVGKTSIARSIARALNREYFRFSVGGMTDVAEIKGHRRTYVGAMPGKIIQCLKKTKTENPLILIDEVDKIGRGYQGDPSSALLELLDPEQNANFLDHYLDVPVDLSKVLFICTANVTDTIPEPLRDRMEMINVSGYVAQEKLAIAERYLVPQARALCGLDESKAKLSSDVLTLLIKQYCRESGVRNLQKQVEKVLRKSAYKIVSGEAESVEVTPENLQDFVGKPVFTVERMYDVTPPGVVMGLAWTAMGGSTLFVETSLRRPQDKDAKGDKDGSLEVTGQLGEVMKESARIAYTFARAFLMQHAPANDYLVTSHIHLHVPEGATPKDGPSAGCTIVTALLSLAMGRPVRQNLAMTGEVSLTGKILPVGGIKEKTIAAKRAGVTCIVLPAENKKDFYDLAAFITEGLEVHFVEHYREIFDIAFPDEQAEALAVER",binding result,[4],binds
